Measurements taken from patent publication US20230348603A1 (VERSEAU THERAPEUTICS, published 2023).

Experiments:
[1] = target: T1, Human VSIG4-L-His (human, UniProt Q9Y279 20-283); assay: SPR (FJB)
T1 construct: long isoform ECD with His tag; also called hVSIG4-L
T1 sequence: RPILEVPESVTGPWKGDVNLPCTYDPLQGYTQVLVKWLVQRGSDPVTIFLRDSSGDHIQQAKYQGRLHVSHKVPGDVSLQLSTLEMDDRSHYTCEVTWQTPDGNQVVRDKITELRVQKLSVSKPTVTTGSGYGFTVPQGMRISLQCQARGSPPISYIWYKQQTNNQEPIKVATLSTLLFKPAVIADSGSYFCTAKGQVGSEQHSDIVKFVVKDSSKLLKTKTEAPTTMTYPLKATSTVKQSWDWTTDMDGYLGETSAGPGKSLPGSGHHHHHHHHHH

[2] = target: T2, Cynomolgus Monkey VSIG4-L-His (cynomolgus monkey); assay: SPR (FJB)
T2 construct: ECD with His tag; also called cyVSIG4-L; cyno VSIG4-L-His
T2 chain: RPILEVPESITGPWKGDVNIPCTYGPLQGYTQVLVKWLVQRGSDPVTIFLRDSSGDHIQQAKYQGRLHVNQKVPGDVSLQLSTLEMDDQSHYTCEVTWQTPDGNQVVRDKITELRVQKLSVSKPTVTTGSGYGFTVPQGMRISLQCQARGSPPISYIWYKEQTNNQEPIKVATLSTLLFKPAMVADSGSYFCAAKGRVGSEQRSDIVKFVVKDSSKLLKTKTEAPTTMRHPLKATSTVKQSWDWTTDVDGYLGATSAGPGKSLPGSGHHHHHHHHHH

[3] = target: T3, Mouse VSIG4-His (mouse); assay: ELISA (FJB), muVSIG4-His
T3 construct: ECD with His tag; also called mVSIG4
T3 chain: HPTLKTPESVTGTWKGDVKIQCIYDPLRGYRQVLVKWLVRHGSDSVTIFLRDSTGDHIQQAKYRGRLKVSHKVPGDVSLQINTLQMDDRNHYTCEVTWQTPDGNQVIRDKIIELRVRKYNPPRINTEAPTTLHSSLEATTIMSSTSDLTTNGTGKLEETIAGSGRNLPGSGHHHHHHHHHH

[4] = target: T4, Human VSIG4-L-CHO (human VSIG4 long isoform on CHO-K1 cells) (human, UniProt Q9Y279 20-399); assay: flow cytometry (FJB), huVSIG4-L CHO-K1 cells
T4 construct: also called hVSIG4-L (flow cytometry)
T4 sequence: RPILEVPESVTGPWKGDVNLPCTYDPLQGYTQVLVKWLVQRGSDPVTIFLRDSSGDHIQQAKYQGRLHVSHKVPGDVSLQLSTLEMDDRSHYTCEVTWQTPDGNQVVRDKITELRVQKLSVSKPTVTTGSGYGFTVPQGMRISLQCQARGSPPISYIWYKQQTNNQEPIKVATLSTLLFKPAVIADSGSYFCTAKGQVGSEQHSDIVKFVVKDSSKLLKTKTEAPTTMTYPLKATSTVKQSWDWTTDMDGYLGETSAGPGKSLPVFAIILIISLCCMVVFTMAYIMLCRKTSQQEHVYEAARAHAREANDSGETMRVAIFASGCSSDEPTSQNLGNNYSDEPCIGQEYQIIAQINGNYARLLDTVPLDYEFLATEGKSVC

[5] = target: T5, Human VSIG4-L-Fc (human); assay: BLI cross-blocking on hVSIG4-L-Fc, competitor 12A12 first
T5 construct: also called hVSIG4-L-Fc; hVSIG4-L

[6] = target: T5, Human VSIG4-L-Fc; assay: BLI cross-blocking on hVSIG4-L-Fc, competitor 14C05 first
[7] = target: T5, Human VSIG4-L-Fc; assay: BLI cross-blocking on hVSIG4-L-Fc, competitor 16G02 first
[8] = target: T5, Human VSIG4-L-Fc; assay: ligand competition ELISA (FJB), blocked ligand C3b
[9] = target: T5, Human VSIG4-L-Fc; assay: ligand competition ELISA (FJB), blocked ligand iC3b
[10] = target: T4, Human VSIG4-L-CHO (human VSIG4 long …); assay: flow cytometry (FJB), 200 nM mAb, huVSIG4-L CHO-K1 cells
[11] = target: T5, Human VSIG4-L-Fc; assay: ligand competition ELISA (FJB), blocked ligand C3b, 200 nM mAb
[12] = target: T5, Human VSIG4-L-Fc; assay: ligand competition ELISA (FJB), blocked ligand iC3b, 200 nM mAb
[13] = target: T4, Human VSIG4-L-CHO (human VSIG4 long …); assay: flow cytometry (FJB), 200 nM mAb, huVSIG4-L CHO-K1 over parental CHO-K1

Kd [1]: 2.5 nM
Kd [2]: 1.3 nM
binding result [3]: no binding (tested: 50 nM)
EC50 [4]: 5.2 nM
binding signal (nm shift) [5]: 0.1 nm
binding signal (nm shift) [6]: 0.11 nm
binding signal (nm shift) [7]: 0.11 nm
IC50 [8]: 1.1 nM
IC50 [9]: 1 nM
Binding (200 nM) MFI [10]: 38100 MFI
% Block C3b (200 nM mAb) [11]: 96%
% Block iC3b (200 nM mAb) [12]: 98%
Binding (200 nM) Fold-Over-Parental [13]: 130 fold
B1: 16G02 mouse/human chimeric IgG4 (S228P) kappa (antibody, V domains shown)
VH: QVQLQQSGAELMKPGASVKISCKATGYTFSSYWIEWVKQRPGHGLEWIGEILPGSSTTNYNEKFKGKATFTADTSSNTAYMQLSSLTSEDSAVYYCAREDHFITTARYAMDYWGQGTSVTVSS
VL: DIVLTQSPASLAMSVGQKVTMSCKSSQSLLNSSNQKNYLAWYQQKPGQSPKLLLYFASTRESGVPDRFIGSGSGTDFTLTISSVQAEDLADYFCQQHYSNPLTFGAGTKLELKR
